Patent publication US20190144566A1 (ORUM THERAPEUTICS, published 2019)

Biological target: T1, mCherry (red fluorescence) H-RAS G12V (UniProt P01112 1-186)
T1 construct: Expressed inside NIH3T3 cells, located at the inner cell membrane; also called intracellular H-RAS G12V mutants; not shown: mCherry red fluorescent protein
Test: confocal co-localisation in NIH3T3 cells expressing mCherry H-RAS G12V

B1: cytosol-penetrating antibody (cytotransmab) TMab4 (antibody, V domains shown)
VH: EVQLVESGGGLVQPGGSLRLSCAASGYTFTSYVMHWVRQAPGKGLEWVSAINPYNDGNYYADSVKGRFTISRDNSRKTLYLQMNSLRAEDTAVYYCARGAYKRGYAMDYWGQGTTVTVSS
VL: DLVMTQSPSSLSASVGDRVTITCKSSQSLFNSRTRKNYLAWYQQKPGKAPKLLIYWASTRESGVPSRFSGSGSGTDFTLTISSLQPEDFATYYCQQYYYHMYTFGQGTKVEIKR
notes: Intact IgG-format monoclonal antibody with CH1-hinge-CH2-CH3 and CL; Used as negative control in the RAS assays; also called CT
- binding result: no binding (tested: 2 µM)
